Source: the Human Domainome abundance scans (Beltran et al. 2025)
± gives the uncertainty stated by the source.

B1: POU domain, class 3, transcription factor 1, residues 247 to 324; numbered along this chain, Q03052 (parent)
chain: EDAPSSDDLEQFAKQFKQRRIKLGFTQADVGLALGTLYGNVFSQTTICRFEALQLSFKNMCKLKPLLNKWLEETDSSS

Variants of: B1
Assay: abundance fitness (aPCA) (normalised: wild type 0, dead -1); higher = more abundant; growth selection in yeast, the domain comes from the species named
Conditions: Homo sapiens

| Variant | abundance fitness |
| --- | --- |
| F50K | -0.903 ± 0.28 |
| F50P | -0.484 ± 0.14 |
| F50W | -0.742 ± 0.1 |
| F50Y | -0.089 ± 0.22 |
| F50E | -0.299 ± 0.092 |
| F50G | -0.736 ± 0.076 |
| F50S | -0.802 ± 0.11 |
| F50D | -0.993 ± 0.23 |
| F50Q | -0.498 ± 0.18 |
| F50I | -0.556 ± 0.26 |
| F50N | -0.874 ± 0.31 |
| F50V | -0.561 ± 0.075 |
| F50R | -0.785 ± 0.078 |
| F50M | -0.597 ± 0.13 |
| F50C | -0.943 ± 0.26 |
| F50L | -0.718 ± 0.09 |
| F50H | -1.09 ± 0.48 |
| F50A | -0.826 ± 0.12 |
| C48D | 0.307 ± 0.11 |
| C48T | -0.086 ± 0.074 |
| C48N | -0.21 ± 0.17 |
| C48W | -0.37 ± 0.082 |
| C48G | 0.032 ± 0.043 |
| C48P | -0.175 ± 0.088 |

| Variant | abundance fitness |
| --- | --- |
| C48I | 0.094 ± 0.11 |
| C48V | -0.151 ± 0.057 |
| C48H | -0.021 ± 0.11 |
| C48Y | -0.312 ± 0.15 |
| C48E | 0.174 ± 0.058 |
| C48K | -0.011 ± 0.085 |
| C48L | -0.04 ± 0.057 |
| C48S | 0.144 ± 0.051 |
| C48Q | 0.064 ± 0.078 |
| C48F | 0.068 ± 0.1 |
| C48A | 0.129 ± 0.051 |
| Q44E | 0.266 ± 0.05 |
| Q44H | -0.046 ± 0.11 |
| Q44I | -0.472 ± 0.14 |
| Q44N | 0.01 ± 0.084 |
| Q44K | 0.041 ± 0.063 |
| Q44G | 0.03 ± 0.038 |
| Q44Y | -0.266 ± 0.15 |
| Q44V | -0.209 ± 0.053 |
| Q44F | -0.323 ± 0.14 |
| Q44M | -0.262 ± 0.085 |
| Q44C | -0.515 ± 0.12 |
| Q44D | 0.195 ± 0.077 |
| Q44L | -0.502 ± 0.069 |

| Variant | abundance fitness |
| --- | --- |
| Q44W | -0.55 ± 0.095 |
| Q44S | 0.025 ± 0.055 |
| Q44P | 0.132 ± 0.064 |
| Q44A | 0.119 ± 0.047 |
| Q44R | -0.067 ± 0.044 |
| Q44T | 0.118 ± 0.064 |
| L32H | 0.033 ± 0.12 |
| L32I | 0.163 ± 0.089 |
| L32E | -0.017 ± 0.066 |
| L32M | -0.039 ± 0.074 |
| L32R | 0.122 ± 0.041 |
| L32V | -0.183 ± 0.071 |
| L32K | 0.086 ± 0.074 |
| L32G | -0.372 ± 0.057 |
| L32C | 0.095 ± 0.1 |
| L32W | -0.185 ± 0.081 |
| L32Q | 0.148 ± 0.061 |
| L32F | 0.186 ± 0.15 |
| L32D | 0.182 ± 0.11 |
| L32S | 0.152 ± 0.056 |
| L32Y | -0.148 ± 0.19 |
| L32N | -0.371 ± 0.2 |
| L32P | -0.898 ± 0.22 |
| G35V | -0.641 ± 0.099 |

| Variant | abundance fitness |
| --- | --- |
| G35H | -0.37 ± 0.24 |
| G35M | -0.4 ± 0.12 |
| G35A | -0.097 ± 0.067 |
| G35W | -0.439 ± 0.092 |
| G35D | -0.571 ± 0.22 |
| G35R | 0.005 ± 0.048 |
| G35S | 0.064 ± 0.062 |
| G35C | -0.299 ± 0.12 |
| G35F | -0.211 ± 0.19 |
| G35T | 0.236 ± 0.085 |
| G35Q | -0.125 ± 0.1 |
| G35Y | -0.313 ± 0.31 |
| G35K | -0.125 ± 0.12 |
| G35P | -1.13 ± 0.31 |
| G31P | -0.983 ± 0.29 |
| G31W | -0.444 ± 0.1 |
| G31Y | -0.957 ± 0.4 |
| G31L | -0.509 ± 0.13 |
| G31V | -0.262 ± 0.07 |
| G31R | -0.46 ± 0.073 |
| G31S | 0.04 ± 0.069 |
| G31M | -0.494 ± 0.18 |
| G31Q | -0.337 ± 0.11 |
| G31T | -0.085 ± 0.2 |

| Variant | abundance fitness |
| --- | --- |
| G31N | -0.437 ± 0.25 |
| G31K | -0.702 ± 0.22 |
| E51P | -0.781 ± 0.14 |
| E51H | -0.98 ± 0.29 |
| E51Y | -0.899 ± 0.19 |
| E51Q | -0.686 ± 0.23 |
| E51V | -0.525 ± 0.13 |
| E51G | -0.251 ± 0.16 |
| E51N | -0.461 ± 0.13 |
| E51S | -0.723 ± 0.12 |
| E51L | -1.08 ± 0.19 |
| E51M | -0.503 ± 0.28 |
| E51T | -0.668 ± 0.14 |
| E51I | -0.818 ± 0.17 |
| E51R | -0.501 ± 0.13 |
| E51F | -0.756 ± 0.17 |
| E51A | -0.65 ± 0.13 |
| E51K | -0.414 ± 0.14 |
| E51D | -0.381 ± 0.17 |
| S43F | -1.04 ± 0.46 |
| S43T | -0.04 ± 0.062 |
| S43D | 0.17 ± 0.066 |
| S43V | -0.835 ± 0.11 |
| S43A | -0.378 ± 0.07 |

| Variant | abundance fitness |
| --- | --- |
| S43H | -0.108 ± 0.14 |
| S43P | -0.007 ± 0.071 |
| S43N | 0.045 ± 0.091 |
| S43R | -0.329 ± 0.055 |
| S43M | -0.63 ± 0.13 |
| S43W | -0.371 ± 0.087 |
| S43Y | -0.389 ± 0.18 |
| S43C | -0.485 ± 0.14 |
| S43L | -0.872 ± 0.12 |
| S43G | -0.297 ± 0.049 |
| S43K | -0.234 ± 0.079 |
| R49W | 0.051 ± 0.42 |
| N40S | 0.004 ± 0.05 |
| N40F | -0.167 ± 0.16 |
| N40I | -0.117 ± 0.17 |
| N40Q | 0.103 ± 0.061 |
| N40H | -0.179 ± 0.13 |
| N40Y | -0.282 ± 0.12 |
| N40K | 0.263 ± 0.066 |
| N40W | -0.244 ± 0.059 |
| N40E | 0.031 ± 0.053 |
| N40D | 0.062 ± 0.073 |
| N40L | -0.237 ± 0.052 |
| N40V | -0.131 ± 0.053 |

| Variant | abundance fitness |
| --- | --- |
| N40R | 0.07 ± 0.046 |
| N40A | -0.179 ± 0.057 |
| N40M | -0.126 ± 0.065 |
| N40T | 0.031 ± 0.067 |
| N40G | 0.008 ± 0.038 |
| N40P | -0.276 ± 0.096 |
| L37C | 0.206 ± 0.12 |
| L37N | -0.333 ± 0.19 |
| L37K | 0.137 ± 0.072 |
| L37Y | 0.175 ± 0.15 |
| L37D | -0.35 ± 0.14 |
| L37W | -0.251 ± 0.075 |
| L37H | 0.133 ± 0.36 |
| L37I | 0.11 ± 0.15 |
| L37E | -0.062 ± 0.06 |
| L37F | -0.06 ± 0.098 |
| L37G | -0.275 ± 0.061 |
| L37S | -0.261 ± 0.1 |
| L37M | 0.097 ± 0.072 |
| L37Q | -0.054 ± 0.084 |
| L37V | -0.198 ± 0.073 |
| L34S | -0.859 ± 0.2 |
| L34G | -0.866 ± 0.12 |
